One assay addresses T1, PD-1-mFc (human, UniProt Q15116 25-170, limits assumed).
T1 construct: also called human PD-1-mFc
The experiment in a line: BLI (Fortebio), antibody on AHC sensor, PD-1-mFc 0.6-50 nM, 37 C. The method, then:
The sample dilution buffer was PBST, 0.1% BSA, pH 7.4. The antibody was immobilized on an AHC sensor at a concentration of 5 μg/mL with an immobilization height of about 0.4 nm. The sensor was equilibrated in a buffer for 60 s, and the binding of the immobilized antibody on the sensor to the antigen PD-1-mFc at concentrations of 0.6-50 nM (three-fold dilution) was determined in 120 s. The protein was dissociated in the buffer for 180 s. The detection temperature was 37° C., the detection frequency was 0.3 Hz, and the sample plate shaking rate was 1000 rpm. The data were analyzed by 1:1 model fitting to obtain affinity constants.
In general terms: Biolayer interferometry detects binding as a change in optical thickness at a sensor tip.

For the next assay, the target named is T2, human NT5E(1-552)-his (human, UniProt P21589 27-552).
T2 construct: The entry starts at Met 1
T2 sequence: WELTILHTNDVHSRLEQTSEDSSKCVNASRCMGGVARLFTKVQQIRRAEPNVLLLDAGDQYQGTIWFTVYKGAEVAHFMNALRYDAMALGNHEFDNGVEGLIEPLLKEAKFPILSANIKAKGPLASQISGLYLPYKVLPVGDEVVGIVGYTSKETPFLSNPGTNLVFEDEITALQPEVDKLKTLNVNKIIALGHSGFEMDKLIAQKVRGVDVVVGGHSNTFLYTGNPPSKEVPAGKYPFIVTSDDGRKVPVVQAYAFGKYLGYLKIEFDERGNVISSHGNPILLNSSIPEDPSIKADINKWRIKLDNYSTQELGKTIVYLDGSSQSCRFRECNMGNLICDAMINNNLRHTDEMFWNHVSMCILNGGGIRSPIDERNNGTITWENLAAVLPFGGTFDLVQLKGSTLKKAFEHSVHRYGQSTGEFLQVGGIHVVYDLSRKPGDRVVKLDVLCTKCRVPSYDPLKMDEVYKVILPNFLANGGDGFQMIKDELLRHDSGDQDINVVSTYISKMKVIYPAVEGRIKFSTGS
The experiment in a line: BLI (Fortebio), antibody on Protein A sensor, NT5E(1-552)-his 3.125-200 nM, 37 C. The method, then: The sample dilution buffer was PBST, pH 7.4. The antibody was immobilized on a Protein A sensor at a concentration of 5 μg/mL with the immobilization time of about 15 s. […] The protein was dissociated in the buffer for 600 s. The sensor was refreshed with 10 mM Gly solution, pH 1.5. The detection temperature was 37° C., the detection frequency was 0.6 Hz, and the sample plate shaking rate was 1000 rpm. The data were analyzed by 1:1 model fitting to obtain affinity constants.

Assay [1] has as its target T3, human PD-1-mFc-biotin (human, UniProt Q15116 25-170, limits assumed, biotin label, site not stated). The experiment in a line: competitive ELISA, competitor coated PD-L1-mFc; antibody 5 ug/mL diluted 1:3. The method, then:
(§1) After incubation, the microplate was blocked with a PBS solution containing 1% BSA at 37° C. for 2 h. After blocking, the plate was washed three times and dried. The antibody was serially diluted to 7 concentrations in a gradient ratio of 1:3 on a dilution plate with 10 μg/mL as the starting concentration, and a blank control was set. […] Then the mixture after reaction was added to the coated microplate, and the microplate was incubated for at 37° C. for 30 min. After incubation, the plate was washed three times with PBST and dried. SA-HRP (KPL, 14-30-00) working solution was added, and the plate was incubated at 37° C. for 30 min. After incubation, the plate was washed four times and patted dry. Then TMB (Neogen, 308177) was added in the dark for chromogenesis for 5 min, and a stop solution was added to terminate chromogenic reaction. Then the microplate was put into a microplate reader immediately, and the OD value of each well in the microplate was read at 450 nm. The data were analyzed and processed by SoftMax Pro 6.2.1.

Assay [2] has as its target T3, human PD-1-mFc-biotin. The experiment in a line: competitive ELISA, competitor coated PD-L1-mFc; antibody 5 ug/mL. The method, then: as §1

T1 sequence (Q15116 other isoform, or with tags, fused parts or gaps limits assumed): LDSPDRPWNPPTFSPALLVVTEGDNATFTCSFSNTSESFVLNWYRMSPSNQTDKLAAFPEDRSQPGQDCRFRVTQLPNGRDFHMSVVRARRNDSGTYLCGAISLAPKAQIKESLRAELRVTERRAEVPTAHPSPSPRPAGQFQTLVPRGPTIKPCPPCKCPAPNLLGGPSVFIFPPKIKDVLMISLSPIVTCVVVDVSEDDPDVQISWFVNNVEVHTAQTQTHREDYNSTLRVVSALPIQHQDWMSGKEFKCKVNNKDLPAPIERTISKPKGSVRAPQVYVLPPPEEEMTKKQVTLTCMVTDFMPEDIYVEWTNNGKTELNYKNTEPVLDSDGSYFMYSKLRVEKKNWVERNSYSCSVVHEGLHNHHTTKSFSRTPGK
T3 sequence (Q15116 other isoform, or with tags, fused parts or gaps limits assumed): as above

B1: P1D7V01 (bispecific antibody, human IgG1, kappa)
heavy: not shown
light: DIQMTQSPSSMSASVGDRVTFTCRASQDINTYLSWFQQKPGKSPKTLIYRANRLVSGVPSRFSGSGSGQDYTLTISSLQPEDMATYYCLQYDEFPLTFGAGTKLELKRTVAAPSVFIFPPSDEQLKSGTASVVCLLNNFYPREAKVQWKVDNALQSGNSQESVTEQDSKDSTYSLSSTLTLSKADYEKHKVYACEVTHQGLSSPVTKSFNRGEC
notes: Morrison form IgG-scFv
A word on the Kd: it is a measure of binding affinity in units of concentration. A higher Kd goes with weaker binding. One may read the koff as the rate constant with which the complex falls apart. High values mean a short-lived complex, low ones a long-lived complex. The kon is the second-order rate constant of association. High values mean fast association, low ones slow association. In the assay with PD-1-mFc, B1 returned a Kd of 0.176 nM, a koff of 7.37e-05 s⁻¹ and a kon of 419000 M⁻¹ s⁻¹. Also, in the assay with human NT5E(1-552)-his, the equilibrium dissociation constant (Kd) was determined as 0.229 nM, the dissociation rate constant (koff) worked out at 4.13e-05 s⁻¹ and the kon is 181000 M⁻¹ s⁻¹. Besides, the OD450 with human PD-1-mFc-biotin [1] was found to be 0.05 OD.

B2: P1D7V03 (bispecific antibody, human IgG1, kappa)
heavy: not shown
light: DIQMTQSPSSMSASVGDRVTFTCRASQDINTYLSWFQQKPGKSPKTLIYRANRLVSGVPSRFSGSGSGQDYTLTISSLQPEDMATYYCLQYDEFPLTFGAGTKLELKRTVAAPSVFIFPPSDEQLKSGTASVVCLLNNFYPREAKVQWKVDNALQSGNSQESVTEQDSKDSTYSLSSTLTLSKADYEKHKVYACEVTHQGLSSPVTKSFNRGEC
notes: Morrison form IgG-scFv
With B2, in the assay with human PD-1-mFc-biotin [2], the OD450 is 0.048 OD.

The values above are taken from patent publication US20230151111A1 (AKESO BIOPHARMA, published 2023).
